Assay results taken from patent publication US12357965B2, “Supramolecular filamentous assemblies for protein purification” (The Johns Hopkins University, priority 2017, dated 2025).
Values joined by “and” are separate entries in the source; they are usually repeats but may differ in a detail not shown here. Equal values may be shown once. One block for each substance: values may come before it. Where no end group is shown, it is not given here. The star is where a group is joined. Palmitoyl = CCCCCCCCCCCCCCCC(=O)*; Octanoyl = CCCCCCCC(=O)*; C12H21O = C12 acyl

Tests used:
[1] = Critical micelle concentration (CMC) measurement with Nile Red; format: physicochemical; conditions: deionized water
Method: CMC Measurement. […] The stock solution of Nile Red was initially prepared by dissolving the dye in acetone at 50 μM. 10 μL stock solution was loaded into several centrifuge tubes, where the solvent evaporates under room temperature to yield the dry mass of Nile Red. Various concentrations of the peptide solutions were prepared in deionized water, and then identical volume was added into the centrifuge tubes containing dry Nile Red and aged overnight. Fluorescent spectra of Nile Red were then monitored by a Fluorolog fluorometer (Jobin Yvon, Edison, NJ) with fixed excitation wavelength at 560 nm; emission spectra were monitored 580-720 nm. The CMC of IAs is determined by a blue-shift of the emission maximum, whereas this transition occurs as the incubated peptides exceed their CMC values.
To deeply understand the differences between single-chain and double-chain alkylated IAs with fragmented antibody binding peptides, further studies on CMC and secondary structures were conducted. The critical micelle concentration (CMC) values for various IAs were measured using Nile Red, a lipophilic dye that fluoresces depending on solvent polarity. Intensive fluorescence upon exposure to hydrophobic environments can be strongly quenched and red-shifted in aqueous media. When incubated with IAs at different concentrations in aqueous solution, Nile Red prefers to partition into the hydrophobic core offered by the self-assembled nanostructures and the CMC of IAs was determined when a blue-shift of the emission maximum occurred. […] Similarly, CMC values for C16-Helix2, Helix1-2C8, and 2C8-Helix2 can be obtained from FIG. 8B-8D.

[2] = TEM imaging of self-assembled nanostructures (diameter); format: physicochemical; conditions: water; for diameter of nanofibers / nanobelts (TEM): pH 7.4, aged overnight; for diameter of smallest filaments (TEM): pH 7.4, double-chain alkylated IAs
Method: Self-Assembly of Immuno-Amphiphiles and TEM Imaging Immuno-amphiphiles with 1 mM concentration were pretreated with HFIP and then dissolved in 1×PBS or deionized water and aged overnight at room temperature; 10 μL of 10 fold diluted sample was spotted on a carbon film copper grid with 400 square mesh (from EMS: Electron Microscopy Sciences) and the excess was removed with filter paper to leave a thin film of sample on the grid. After letting the sample dry for 5 minutes, 10 μL of 2% uranyl acetate was added to sample grid, and the excess was removed after 30 seconds. All samples were dried for at least 3 hours before TEM imaging.

[3] = Circular dichroism (CD) spectroscopy of peptide secondary structure; format: physicochemical; conditions: 100 μM in water at pH 7.4
IgG = IgG (Homo sapiens, UniProt P01857); assay: IgG binding and precipitation by co-assembled immunofibers with 1 M ammonium sulfate (ProA column quantification); conditions: mixed with IgG, 10:1 binding molecule to IgG
Method: To investigate the IgG binding and precipitation ability with the new immunofibers binding system, 100 μl of desired immunofibers solution was incubated with IgG (with a 10:1 molar ratio of C12-VVKKGG(SEQ ID NO: 9) -Z33 and IgG) for half an hour followed by adding ammonium sulfate to a final concentration of 1 M to trigger the precipitation of the immunofibers and IgG. […] After centrifuging down the precipitates and analyzing the IgG concentration in the supernatant, about 30% IgG were precipitated out from the solution. IgG concentration was quantified with a ProA column (TSKgel® Protein A-5PW, 20 μm, 35×4.6 mm) monitored at 280 nm.
To increase the IgG binding efficiency and optimal precipitation condition in the co-assembled immunofibers binding system, several factors will continue to be optimized including the ratio of binding molecules to spacer molecules, the ratio of binding molecules to IgG, salt concentration, binding and salting time, and so on. The molar ratio of C12-VVEE (SEQ ID NO: 10) and C12-VVKKGG(SEQ ID NO: 9) -Z33 and the molar ratio of C12-VVKKGG(SEQ ID NO: 9) -Z33 were firstly studied and preliminary results were shown in FIG. 21. At a 10:2 molar ratio of C12VVKKGG(SEQ ID NO: 9) -Z33 to IgG and 1 M ammonium sulfate, 5 molar ratios of C12-VVEE (SEQ ID NO: 10) to C12-VVKKGG(SEQ ID NO: 9) -Z33 (5:1, 10:1, 25:1, 50:1, 100:1) were tested. […]

[4] = Thioflavin T (ThT) spectroscopic assay for β-sheet; format: physicochemical; conditions: 100 μM in deionized water
Method: Thioflavin T (ThT) Spectroscopic Assay. A ThT stock solution was prepared in deionized water at 50 μM. […] The fluorescence intensity was then measured by a Fluorolog fluorometer (Jobin Yvon, Edison, NJ) with excitation at 440 nm (slit width 5 nm) and emission at 482 nm (slit width 10 nm).
To further confirm the component of secondary structures in the self-assembled IAs, a fluorescent dye Thioflavin-T (ThT) with large enhancement of its fluorescence emission upon binding to β-sheet surfaces was used to examine the existence of β-sheet secondary structures in Helix1-based IAs.

Sequence of IgG (P01857 1-330 isoform P01857-1): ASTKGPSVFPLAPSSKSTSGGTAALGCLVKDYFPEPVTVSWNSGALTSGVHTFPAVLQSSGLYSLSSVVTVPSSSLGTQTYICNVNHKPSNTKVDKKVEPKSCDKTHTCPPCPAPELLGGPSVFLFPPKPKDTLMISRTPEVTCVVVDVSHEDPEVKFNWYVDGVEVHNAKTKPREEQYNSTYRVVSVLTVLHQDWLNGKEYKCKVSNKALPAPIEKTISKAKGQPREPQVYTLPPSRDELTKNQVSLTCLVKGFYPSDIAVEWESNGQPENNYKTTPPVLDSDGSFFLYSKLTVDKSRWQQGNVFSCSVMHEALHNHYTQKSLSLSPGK

Substance: (C8H15O)2-KPNLNEEQRNAKIKSIRDD (SEQ ID NO: 7) (not fully specified (residue 1, N-terminus); printed as (C8H15O)2-KPNLNEEQRNAKIKSIRDD; also: two octanoyl chains (C8H15O)2 at N-terminal Lys, places not given here) [2C8-Helix2]
CMC [1]: 5 to 10 µM
diameter of nanofibers / nanobelts (TEM) [2]: 22.9±1.5 nm
diameter of smallest filaments (TEM) [2]: 9.3±1.3 nm
Main Secondary Structure (100 μM) [3]: α-helix

Substance: C8H15O- PNLNEEQRNAKIKSIRDD (SEQ ID NO: 5) (Octanoyl-PNLNEEQRNAKIKSIRDD) [C8-Helix2]
CMC [1]: >100 µM
Main Secondary Structure (100 μM) [3]: Random coil

precipitation after addition of ammonium sulfate (observation) (IgG): no precipitation was observed
Substance: C12-VVKKGG (SEQ ID NO: 9) -Z33: binding molecule: C12 alkyl tail at N-terminus, VVKKGG spacer between the carbon chain and binding peptide Z33

Substance: C12H21O- PNLNEEQRNAKIKSIRDD (SEQ ID NO: 5) (C12H21O-PNLNEEQRNAKIKSIRDD) [C12-Helix2]
CMC [1]: 2 to 5 µM
Main Secondary Structure (100 μM) [3]: α-helix

Substance: C16H31O- PNLNEEQRNAKIKSIRDD (SEQ ID NO: 5) (Palmitoyl-PNLNEEQRNAKIKSIRDD) [C16-Helix2]
CMC [1]: 0.5 to 1 µM
diameter of nanofibers / nanobelts (TEM) [2]: 12.4±1.7 nm
Main Secondary Structure (100 μM) [3]: β-sheet

Substance: FNMQQQRRFYEALHD [Helix1]
Main Secondary Structure (100 μM) [3]: random coil

Substance: FNMQQQRRFYEALHDK (SEQ ID NO: 3)-C8H15O (not fully specified (residue 16); also: C-terminal C8 acyl (C8H15O), attachment not given here) [Helix1-C8]
CMC [1]: >100 µM
Main Secondary Structure (100 μM) [3]: Random coil

Substance: FNMQQQRRFYEALHDK(SEQ ID NO: 3)-C12H21O (FNMQQQRRFYEALHDK(C12H21O); not fully specified) [Helix1-C12]
CMC [1]: 5 to 10 µM
diameter of nanofibers / nanobelts (TEM) [2]: 12.2±1.4 nm and 12.9±0.9 nm
Main Secondary Structure (100 μM) [3]: β-sheet

Substance: FNMQQQRRFYEALHDK(SEQ ID NO: 3)-C16H31O (not fully specified (residue 16); also: C-terminal C16 acyl (C16H31O), attachment not given here) [Helix1-C16]
CMC [1]: 0.5 to 1 µM
ThT fluorescence emission at 482 nm compared with pure ThT solution [4]: dramatic increase of fluorescence
diameter of nanofibers / nanobelts (TEM) [2]: 9.6±1.3 nm and 9.5±1.2 nm
Main Secondary Structure (100 μM) [3]: β-sheet

Substance: FNMQQQRRFYEALHDKK(SEQ ID NO: 4)-(C8H15O)2 (not fully specified (residues 16, 17); also: two C-terminal octanoyl chains (C8H15O)2, places not given here) [Helix1-2C8]
CMC [1]: 10 to 20 µM
diameter of nanofibers / nanobelts (TEM) [2]: 10-70 nm
diameter of smallest filaments (TEM) [2]: 11.0±1.4 nm
Main Secondary Structure (100 μM) [3]: α-helix

Substance: PNLNEEQRNAKIKSIRDD [Helix2]
Main Secondary Structure (100 μM) [3]: random coil
